Seven molecules from publication PMC4072699, “A Remorin Gene SiREM6, the Target Gene of SiARDP, from Foxtail Millet (Setaria italica) Promotes High Salt Tolerance in Transgenic Arabidopsis” can be followed below.

The target in data set [1] is T1, SiARDP (Setaria italica, UniProt K3Z7V1 1-332). Description: competition; versus labeled P1; signal not obviously reduced; LightShift Chemiluminescent EMSA Kit (Thermo), manufacturer's protocol; buffer, salt, pH and temperature not stated. The note with it: protein: recombinant.
T1 sequence (K3Z7V1 entry or part of it): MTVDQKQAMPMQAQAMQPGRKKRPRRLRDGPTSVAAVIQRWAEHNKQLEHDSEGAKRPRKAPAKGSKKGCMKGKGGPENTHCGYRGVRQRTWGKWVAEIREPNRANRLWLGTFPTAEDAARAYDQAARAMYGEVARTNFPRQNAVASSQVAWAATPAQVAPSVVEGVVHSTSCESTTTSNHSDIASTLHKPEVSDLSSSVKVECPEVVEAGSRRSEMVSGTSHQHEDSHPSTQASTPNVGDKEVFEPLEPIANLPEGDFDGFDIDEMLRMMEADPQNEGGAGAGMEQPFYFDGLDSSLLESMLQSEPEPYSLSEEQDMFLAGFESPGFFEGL
Data set [2] deals with T2, SiAREB1 (Setaria italica, UniProt K3YTM2 1-357).
T2 sequence: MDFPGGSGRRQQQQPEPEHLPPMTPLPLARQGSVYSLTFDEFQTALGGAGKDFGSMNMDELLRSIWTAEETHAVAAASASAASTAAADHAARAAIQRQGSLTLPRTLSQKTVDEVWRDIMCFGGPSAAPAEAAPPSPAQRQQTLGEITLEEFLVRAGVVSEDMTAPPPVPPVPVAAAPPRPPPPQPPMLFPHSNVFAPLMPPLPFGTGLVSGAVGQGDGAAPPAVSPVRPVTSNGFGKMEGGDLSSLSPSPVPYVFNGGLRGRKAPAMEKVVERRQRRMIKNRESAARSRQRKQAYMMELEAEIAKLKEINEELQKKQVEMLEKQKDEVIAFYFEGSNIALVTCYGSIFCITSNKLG
The experiment in a line: EMSA; LightShift Chemiluminescent EMSA Kit (Thermo), manufacturer's protocol; buffer, salt, pH and temperature not stated. The note with it: protein: recombinant; chain copies: 2; label: biotin. A general note: A gel shift assay detects complexes by their altered migration in electrophoresis.

For data set [3], the target named is T1, SiARDP. Description: competition; versus labeled P2; signal not obviously reduced; LightShift Chemiluminescent EMSA Kit (Thermo), manufacturer's protocol; buffer, salt, pH and temperature not stated. The note with it: protein: recombinant.
In data set [4] the target is T1, SiARDP. The experiment in a line: competition; versus labeled P2; LightShift Chemiluminescent EMSA Kit (Thermo), manufacturer's protocol; buffer, salt, pH and temperature not stated. The note with it: protein: recombinant.
The target of data set [5] is T1, SiARDP. The experiment in a line: EMSA; LightShift Chemiluminescent EMSA Kit (Thermo), manufacturer's protocol; buffer, salt, pH and temperature not stated. Particulars: protein: recombinant; label: biotin.
Data set [6] concerns the target T1, SiARDP. The experiment in a line: competition; versus labeled P1; LightShift Chemiluminescent EMSA Kit (Thermo), manufacturer's protocol; buffer, salt, pH and temperature not stated. Particulars: protein: recombinant.

B1: competitor 2 (mutant DRE1, ACCGAC to AAAAAC) (dsDNA)
DNA 1: GCGATGGTCCTCAAAAACGACGCCGCCCGC
DNA 2: GCGGGCGGCGTCGTTTTTGAGGACCATCGC
In the case of B1, the binding result in data set [1] is recorded as “no binding”.

B2: probe P2 (DRE2) (dsDNA)
DNA 1: ATGGGTTCCTTGCCGACTCTTCTTTTAACC
DNA 2: GGTTAAAAGAAGAGTCGGCAAGGAACCCAT
For the molecule B2, the binding result in data set [2] is reported as “no binding”.

B3: competitor 4 (mutant DRE2, GCCGAC to GAAAAA) (dsDNA)
DNA 1: ATGGGTTCCTTGAAAAATCTTCTTTTAACC
DNA 2: GGTTAAAAGAAGATTTTTCAAGGAACCCAT
As to B3, the binding result in data set [3] was “no binding”.

B4: competitor 3 (DRE2) (dsDNA)
DNA 1: ATGGGTTCCTTGCCGACTCTTCTTTTAACC
DNA 2: GGTTAAAAGAAGAGTCGGCAAGGAACCCAT
As to B4, in data set [4], the binding result was “binds”.

B5: probe P1 (DRE1) (dsDNA)
DNA 1: GCGATGGTCCTCACCGACGACGCCGCCCGC
DNA 2: GCGGGCGGCGTCGTCGGTGAGGACCATCGC
As for B5, the values for the binding result in data set [5] and in data set [2] were “binds” and “no binding”, respectively.

B6: competitor 1 (DRE1) (dsDNA)
DNA 1: GCGATGGTCCTCACCGACGACGCCGCCCGC
DNA 2: GCGGGCGGCGTCGTCGGTGAGGACCATCGC
For the molecule B6, the binding result in data set [6] is recorded as “binds”.

B7: probe P3 (ABRE) (dsDNA)
DNA 1: GCCGCGCGGGTACGTGCGAGCCCCGCGGTC
DNA 2: GACCGCGGGGCTCGCACGTACCCGCGCGGC
With B7, the binding result in data set [5] and in data set [2] was “no binding” in each case.
